Broadly, the stoichiometry N is a count of units in the complex or per binding partner.

Assay [1] deals with T1, HemKΔ80 (Leptospira biflexa, UniProt A5JUR4).
T1 construct: gene LEPBI_I1423; soluble cytoplasmic catalytic region lacking first 80 residues (periplasmic and transmembrane); N-terminal His-tag cut by TEV; E. coli Rosetta-gami(DE3)
T1 sequence (A5JUR4 81-295): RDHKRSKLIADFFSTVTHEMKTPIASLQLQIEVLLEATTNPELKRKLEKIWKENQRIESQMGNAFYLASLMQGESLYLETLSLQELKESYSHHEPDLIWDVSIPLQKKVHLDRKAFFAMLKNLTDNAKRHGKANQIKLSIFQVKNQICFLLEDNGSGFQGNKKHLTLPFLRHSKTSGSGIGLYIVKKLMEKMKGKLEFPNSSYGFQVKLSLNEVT
The assay is described as follows: autophosphorylation, PhosTag-SDS-PAGE. Format: biochemical. As to conditions: 5 mM ATP, 10 mM MgCl2; phosphoryl transfer to HemK H98.

Assay [2] deals with phosphorylated HemRFL (full-length HemR, phosphorylated) (Leptospira biflexa). The assay is described as follows: SEC; 600 uM HemRREC or HemRFL incubated with 5 mM acetyl phosphate, 10 mM MgCl2; dimeric phosphorylated form separated from monomeric non-phosphorylated form on Superdex 10/300 75 prep. In general terms: SEC sorts molecules by how far they enter the pores of the column.

The target of assay [3] is phosphorylated HemRREC (receiver domain of HemR, phosphorylated) (Leptospira biflexa). The description is as above.

As to `Nc1ncnc2c1ncn2[C@@H]1O[C@H](COP(=O)(O)OP(=O)(O)OP(=O)(O)O)[C@@H](O)[C@H]1O` [ATP], in assay [1], the “autophosphorylation, PhosTag-SDS-PAGE” value is given as “possesses ATP-dependent autokinase activity (Fig 1A)”.
In assay [2], “phosphorylated HemRFL (full-length HemR, phosphorylated) (natural protein)” came in with a stoichiometry N of 2.
With “phosphorylated HemRREC (receiver domain of HemR, phosphorylated) (domain or fragment)”, the stoichiometry N in assay [3] turned out to be 2.

These data come from publication PMC11426443, “Signal-sensing triggers the shutdown of HemKR, regulating heme and iron metabolism in the spirochete Leptospira biflexa” (PLOS ONE, 2024).
